Source: paper PMC3581488
Positions count from the first letter of the chain named. Names and notes keep the numbering of the source. Blank lines part the entries; values can stand above or below the molecule they belong to.

Assays:
Experiment in all cases: GST fusion protein pulldown assay, quantified immunoblot (α-tubulin)
Purified bovine tubulin = Purified bovine tubulin (UniProt Q6B856); conditions: parent: est. 100, read off a plot
[1] = target: T1, Purified bovine tubulin, Q6B856; conditions: chain shown with the change
T1 chain: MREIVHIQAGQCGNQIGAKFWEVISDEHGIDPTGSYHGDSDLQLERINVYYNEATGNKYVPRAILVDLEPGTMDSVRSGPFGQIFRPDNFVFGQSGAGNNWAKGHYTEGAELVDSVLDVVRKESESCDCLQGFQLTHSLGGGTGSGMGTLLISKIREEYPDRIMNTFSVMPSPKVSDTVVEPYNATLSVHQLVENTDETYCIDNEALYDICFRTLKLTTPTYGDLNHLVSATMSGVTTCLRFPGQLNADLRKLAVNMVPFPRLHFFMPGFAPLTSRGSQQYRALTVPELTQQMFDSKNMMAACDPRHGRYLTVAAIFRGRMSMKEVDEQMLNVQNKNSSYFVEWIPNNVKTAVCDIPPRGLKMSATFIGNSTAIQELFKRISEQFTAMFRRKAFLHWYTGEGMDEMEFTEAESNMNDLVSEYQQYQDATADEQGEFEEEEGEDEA

[2] = target: Tubulin from rat brain extracts, P68370;Q3KRE8; conditions: chain shown with the change; rat brain cytosolic extracts; parent: est. 100; read off a plot
[3] = parent: est. 100, read off a plot

B1: GST fusion protein encoding the C-terminus (CT) of the angiotensin II type 1 receptor (AT1R) K307E (protein)
chain: LGEKFKKYFLQLLKYIPPKAKSHSSLSTKMSTLSYRPSDNMSSSAKKPASCFEVE
percent of parent [1, 3]: 83 % of AT1R CT

B3: GST fusion protein encoding the C-terminus (CT) of the angiotensin II type 1 receptor (AT1R) K307E; K308E; K310E; K311E (protein)
chain: B1 chain with K4E, K6E, K7E
percent of parent [1, 3]: 5 % of AT1R CT
percent of parent ([1]; purified tubulin, parent: est. 100, read off a plot): 4 % of AT1R CT
percent of parent [2]: 12 % of AT1R CT

Now from value to molecule:

percent of parent (Purified bovine tubulin): 20 % of AT1R CT
Molecule: GST fusion protein encoding the C-terminus (CT) of the angiotensin II type 1 receptor (AT1R) K310E

percent of parent (Purified bovine tubulin): 52 % of AT1R CT
Molecule: GST fusion protein encoding the C-terminus (CT) of the angiotensin II type 1 receptor (AT1R) K311E

percent of parent [1, 3]: 100 % of AT1R CT
B2: GST fusion protein encoding the C-terminus (CT) of the angiotensin II type 1 receptor (AT1R) K308E (protein)
chain: B1 chain with E3K, K4E
